Results: patent US20210163584A1 (Sanofi, published 2021)
Where two headings read alike, the source gives them in different places.

What was measured:
[1] = molecular target: T1, TGF-β1 (UniProt P01137 279-390); assay: cell-based or functional assay
[2] = molecular target: T1, TGF-β1; assay: cell-based or functional assay; remark: listed apart in the source
[3] = molecular target: T1, TGF-β1; assay: cell-based or functional assay; remark: listed apart in the source
[4] = molecular target: T1, TGF-β1; assay: SPR (Biacore); amine-coupled TGF-β1 on chip, antibody as analyte, kinetic fit
Source text: Recombinant mAb1-D10 fusion variants of Example 7 were also quantitatively assessed for TGF-β1 binding using surface plasmon resonance (SPR) as detected by Biacore. Samples containing purified variants were passed over a sensor chip with amine-coupled TGF-β1 to determine the equilibrium constant, KD. A target immobilization level of less than 100 response units (RU) of TGF-β1 was chosen to minimize the potential for avidity effects arising from binding adjacent TGF-β1 molecules on the chip. The level of immobilization was determined by the change in response units after NHS/EDC activation of the chip surface, but before quenching with ethanolamine. The fusion variants, WT fusion variant F1, and mAb1 control were diluted to 30, 10, 3, 1 and 0.37 nM in HBS-EP buffer and passed over the TGF-β1 chip at 30 μL/min for 3 min, followed by 5 min dissociation in the same buffer. Between runs, the chip surface was regenerated to remove any bound antibody by passing two 30 sec injections of 40 mM HCl over the chip at a flow rate of 75 μL/min. […] Unexpectedly, the maximum signal (RU) elicited by the fusion variants decreased with increasing number of peptides, with variant F17 (D10-HC-D10/D10-LC, PAR=6) showing the lowest signal. […] A possible explanation of this decline may reflect electrostatic repulsion between the chip matrix (carboxymethyl dextran) and the negatively charged D10 peptides.

T1 sequence (P01137 279-390 limits assumed): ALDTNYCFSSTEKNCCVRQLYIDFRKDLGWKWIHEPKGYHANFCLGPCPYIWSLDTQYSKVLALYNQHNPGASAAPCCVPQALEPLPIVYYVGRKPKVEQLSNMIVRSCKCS

| Binder | half-maximal inhibition of IL-11 release (EC50), A549 cells [1] | IC50 (read off the curve); IL-11 release by A549 cells in response to TGF-β1 [2] | IC50 (read off the curve); IL-11 release by A549 cells in response to TGF-β1 [3] | Kd [4] | koff [4] | kon [4] |
| --- | --- | --- | --- | --- | --- | --- |
| mAb1 control conjugate (PAR=0) (antibody, mouse IgG1, kappa, hinge disulfides reduced; D10-maleimide peptide omitted; thiols blocked with N-ethylmaleimide) heavy: HVQLQQSGPELVRPGASVKLSCKASGYIFITYWMNWVKQRPGQGLEWIGQIFPASGSTNYNEMFEGKATLTVDTSSSTAYMQLSSLTSEDSAVYYCARGDGNYALDAMDYWGQGTSVTVSSAKTTPPSVYPLAPGSAAQTNSMVTLGCLVKGYFPEPVTVTWNSGSLSSGVHTFPAVLQSDLYTLSSSVTVPSSTWPSQTVTCNVAHPASSTKVDKKIVPRDCGCKPCICTVPEVSSVFIFPPKPKDVLTITLTPKVTCVVVDISKDDPEVQFSWFVDDVEVHTAQTKPREEQFNSTFRSVSELPIMHQDWLNGKEFKCRVNSAAFPAPIEKTISKTKGRPKAPQVYTIPPPKEQMAKDKVSLTCMITDFFPEDITVEWQWNGQPAENYKNTQPIMDTDGSYFVYSKLNVQKSNWEAGNTFTCSVLHEGLHNHHTEKSLSHSPGK light: NIVLTQSPASLAVSLGQRATISCRASESVDSYGNSFMHWYQQKSGQPPKLLIYLASNLESGVPARFSGSGSRTDFTLTIDPVEADDAATYYCQQNNEDPLTFGAGTKLELKRADAAPTVSIFPPSSEQLTSGGASVVCFLNNFYPKDINVKWKIDGSERQNGVLNSWTDQDSKDSTYSMSSTLTLTKDEYERHNSYTCEATHKTSTSPIVKSFNRNEC | ~0.1 nM | ~0.05 nM | – | – | – | – |
| mAb1-D10 conjugate (PAR=5) (antibody, mouse IgG1, kappa, Ac-D10-C2-PEG12-C6-maleimide on reduced hinge region cysteines; average 5 peptides per antibody) heavy: HVQLQQSGPELVRPGASVKLSCKASGYIFITYWMNWVKQRPGQGLEWIGQIFPASGSTNYNEMFEGKATLTVDTSSSTAYMQLSSLTSEDSAVYYCARGDGNYALDAMDYWGQGTSVTVSSAKTTPPSVYPLAPGSAAQTNSMVTLGCLVKGYFPEPVTVTWNSGSLSSGVHTFPAVLQSDLYTLSSSVTVPSSTWPSQTVTCNVAHPASSTKVDKKIVPRDCGCKPCICTVPEVSSVFIFPPKPKDVLTITLTPKVTCVVVDISKDDPEVQFSWFVDDVEVHTAQTKPREEQFNSTFRSVSELPIMHQDWLNGKEFKCRVNSAAFPAPIEKTISKTKGRPKAPQVYTIPPPKEQMAKDKVSLTCMITDFFPEDITVEWQWNGQPAENYKNTQPIMDTDGSYFVYSKLNVQKSNWEAGNTFTCSVLHEGLHNHHTEKSLSHSPGK light: NIVLTQSPASLAVSLGQRATISCRASESVDSYGNSFMHWYQQKSGQPPKLLIYLASNLESGVPARFSGSGSRTDFTLTIDPVEADDAATYYCQQNNEDPLTFGAGTKLELKRADAAPTVSIFPPSSEQLTSGGASVVCFLNNFYPKDINVKWKIDGSERQNGVLNSWTDQDSKDSTYSMSSTLTLTKDEYERHNSYTCEATHKTSTSPIVKSFNRNEC | ~0.1 nM | ~0.06 nM | – | – | – | – |
| mAb1 F17 (antibody, mouse IgG1, kappa, Mouse IgG1 fusion variant, PAR 6; also called D10-HC-D10: D10-LC) heavy: DDDDDDDDDDHVQLQQSGPELVRPGASVKLSCKASGYIFITYWMNWVKQRPGQGLEWIGQIFPASGSTNYNEMFEGKATLTVDTSSSTAYMQLSSLTSEDSAVYYCARGDGNYALDAMDYWGQGTSVTVSSAKTTPPSVYPLAPGSAAQTNSMVTLGCLVKGYFPEPVTVTWNSGSLSSGVHTFPAVLQSDLYTLSSSVTVPSSTWPSQTVTCNVAHPASSTKVDKKIVPRDCGCKPCICTVPEVSSVFIFPPKPKDVLTITLTPKVTCVVVDISKDDPEVQFSWFVDDVEVHTAQTKPREEQFNSTFRSVSELPIMHQDWLNGKEFKCRVNSAAFPAPIEKTISKTKGRPKAPQVYTIPPPKEQMAKDKVSLTCMITDFFPEDITVEWQWNGQPAENYKNTQPIMDTDGSYFVYSKLNVQKSNWEAGNTFTCSVLHEGLHNHHTEKSLSHSPGKDDDDDDDDDD light: DDDDDDDDDDNIVLTQSPASLAVSLGQRATISCRASESVDSYGNSFMHWYQQKSGQPPKLLIYLASNLESGVPARFSGSGSRTDFTLTIDPVEADDAATYYCQQNNEDPLTFGAGTKLELKRADAAPTVSIFPPSSEQLTSGGASVVCFLNNFYPKDINVKWKIDGSERQNGVLNSWTDQDSKDSTYSMSSTLTLTKDEYERHNSYTCEATHKTSTSPIVKSFNRNEC | – | – | ~0.02 nM | 4.15 nM | 0.00079 s⁻¹ | 191000 M⁻¹ s⁻¹ |
